According to the DeepSol protein solubility set:

test: soluble on expression in E. coli; label from the status in PepcDB or PDB records

Sequence	soluble on expression in E. coli
MSLIHYIPMFGKIKLTNLEIKMGNELISIKEEGDYFLYLRRDVERVIVGDYLQILPAPARGYGVKLMMVKLKRPIALAPGKSIEGFIQVPVEVSVKVGDSEIDRFGIGREKYALYGTLENGVIVRYCTGYIGNEPNGLGNLKVKIVNKGEDWGFIDRIVFPMLDLMYYSKDKAFYPLIRVEIQEDINVINTGEAPLPNLVSTGEEKSLRFRMRWEGHHHHHH	soluble
MNKILIAAASSGTGKTTVTLGIMHALKKRGLRVQPFKVGPDYIDTNYHQAITGVASINLDSFLIDDDAMLAALFEKHGQSADISVIEGVMGLFDGLGIDRDNSSTSFIAKCTKTPVILVVDGKAISTSAAAIVDGFNRFDPELTIAGVIINRVASENHFSLIKGAIERYTDVPVLGYLPKNAAVALPERHLGLVPKEEMTELETKWEVLGDLIAEHVDLDRLLAISKTGAKLTVHPPEIQVPDFSGMRVAYALDAAFHFYYQDNLDFIRSTGATLIPFSPLEEREVPDADFIYIGGGFPEVFAERLAKNKSMHESILAAHEQGKPIYAECGGLMYLGSSLEMEAESYEMVGVFDGVSKMTTRLRKFGYCIAEPLEDTLLGKKGTAIRGHEFHHSVFETTEPTRMKLTKKRDGETVKEWHGGYQKGNTFASYLHIHFYQNLAMITHMFGAIERLEHHHHHH	soluble
MGSDKIHHHHHHMALALTLREYEFSVLLLEARELPEKVDDPRPLALSYGSRLILQRLDIWKNLTQPAPITTIHISNRGHFGHAVLTPDDAGVPALGYVVNYHDLYHSMGRAIRGSNAVYQTNALVTAIRTDLSLAQVAYQQGSTTRQVRARLLVLADGGKLAEQIDGVRYHTYDYQQTAIVANVKVESPRPGTAFERFTLNGPLALLPSGEGYALVWTMPAAAAEKILKLDDRSFLLHLHEQFGDRMGEFTHVGPRSSFPLILKHASTITGHRAVLIGNAAQALHPVAGQGFNLGLRDAWELASEISRIPSGTPGEPGSTRMLAAYSRRRQSDKRISRLFTDSLVKLFTADLPLVQTCSGMGLAALDNLPPARRLIAHQMIFGTKGWFIG	not soluble
QSLVKDFLSGVFMLIEDQYGVGDTIDVGDVVGTVEDVSLRLTTLRDINGTQWFVRNGEILRVGNFSQEYAVAIINVPIALDEKASDAIALIEKSVADEAQLQEVADVLLDDPVVDGVNSVGLDHMVIRTRVTTLPDQQWFIERKMRARILTDLQRNGIDTPYPEGIGAYRRLDDEE	not soluble
MNELTGADFKSATADDNKKLFIETYGCQMNVADSEVIASVMQMAGYSVAETLEEADAVFMNTCSIRDNAEQKILNRLEFFHSMKKKKKHLIVGVLGCMAERVKDDLIEHHHVDLVVGPDAYLTLPELIASVEAGEKAMNVELSTTETYRDVIPSRICGNHISGFVSIMRGCNNFCTYCIVPYTRGRERSRDVESILNEVADLVSKGYKEITLLGQNVNSYRFEKEGGEVVTFPMLLRLVAEAAPGIRVRFTTSHPKDMSDETLEVIAQVPNVCKHIHLPVQSGSSRILKLMNRKYTREWYLDRVAAIKRIVPDCGLTTDIFSGFHSETEEDHRESLSLMEACGYDAAFMFKYSERPGTYASKHLEDNVPEEIKVRRLNEIIALQNRLSAESNNRCIGKTYEVLVEGVSKRSRDQLFGRTEQNRVVVFDRGTHRIGDFVNVRITEASSATLKGEEVFSLEHHHHHH	not soluble
LPSGIIIKGIGGFYYVKTENGIYECKARGVFRKDSKIPLPGDEVVISVIDEEKKKGYIEEICERKIQLIRPAVANINQIALVVSVKSPLPDFVLLDKLLITVMQKELNAIICINKIDLDEGYKDVIIDCYKGTGVETVCVSSVLNVGFEQLAKMLEGKTTVFAGQSGVGKSTILNKILDSYVMETGEISDKIERGRHTTRHAELLELKSGGFVVDTPGFSSFELSEIEPKELQNYYPEFRDYIGKCRFAGCSHISEPGCMVKSALENGMINKDRYGRYIIFYNMLKDKQRRKYS	not soluble
SDRAMMNAFKEITTMADRINLPRNIVDRTNNLFKQVYEQKSLKGRANDAIASACLYIACRQEGVPRTFKEICAVSRISKKEIGRCFKLILKALETSVDLITTGDFMSRFCSNLCLPKQVQMAATHIARKAVELDLVPGRSPISVAAAAIYMASQASAEKRTQKEIGDIAGVADVTIRQSYRLIYPRAPDLFPTDFKFDTPVDKLPQL	soluble
MTLYSFRLGLLLFCSLLFGCTAPTPAPVSGLGKDYNKVERGSYRGSYYEVKKGDTLYFIAYLTDKDVNDLISYNDLAPPYTIHPGQKIKLWLPNYTPPAYGGTGGAATVAVASSTSASVAKAATTATVAQTVSKSSNTKNVQNGSTNSQNLTKKDPVKTVDQTKTKEYVEPVGKQNVNVNVAKAKPSDEKIAKWLWPTKGRVIKNFSAGDQGNKGIDIAGQRGQAVVATADGTVVYSGNALRGYGNLIIIKHNEHYLSAYAHNDQLLAKEGQTVQAGQKIATMGSSGTNSVRLHFEIRYQGKSVNPKRYLP	not soluble
MSLGDVEEWVNPDQSTSQPVTKAALVEKTVAMTEAGKFASFFQEGELETIQKLRVSGPLDASDIDAIRYQMPRLEVLDMKEVELIESDKTYGAEDHREHYKLKKGVITPKMLQCFSLLVTLVLPKDITEIEDYGIYGNKNLVSIEIPVTVKKVGAHVFKSCSSLQKVDLPNVETLGERVFESCGKLTKVTLSPDLQVIPDYAFQYCGSLADVPLPSSLVSIGVSAFRDCSSLVDVPLPSSLVSIGTGAFANCKSLTSVDMPNTVTTLENGTYQNCTNLKDVKLSDNLKRIGAENDHYSGSSFEGCQNLASIDIPASVSWINSFSFKNCVNLKTVTFHEGLQVIGGKSFQGCSSLVSVSIPKSVTSIGDESFEYCSSLNEMNLSQEGTPEINSSAFAYSGLSSITIPETVTSVGGGILNGCSRLTSIFWECNRDVPNIIDLNSTSCLLYLSHDVKCPSTWKNVIEPGGVAQTIVLKNEKRYLCPKAFTANKISYTREFTMKTIPGKAAGWQTIILPFSVQTITDKDGNRLAPFMAEGDGIWKRFWLRELQADGTYKDVTAIEANKPYLIAMPNAEEYASEYCISGNVTFEADNVSLGETPEIVPTDGGAYSMYGTYDWVTGTRKVYALNLDNWSDGSVYYEKGSVFVPSLRDVAPFECYLQNNNPSASTRGFIGIVGSHASTRAGEGHHHHHH	soluble
LEGENSKQKVQMSIHQFTNICFKKCVESVNDSNLSSQEEQCLSNCVNRFLDTNIRIVNGLQNTR	soluble
ASYWSLQDILLRQGYRENLHPDDLIEGYRELLADSVHRCLQSDVEVGLFLSGGIDSAAVAHFAAEKQDLHTFTVLSQSTFTNEDAKYAHWLAKDLHLPNHQVLYQLGNDELLQPESYKHLLWICETPFCGPEQLYKFHLHKYAKAIRPNLKVMLTGQGSDEFNGGYSTTLSPAENPSWEGFIESVNTMEMNRLHRLQGNIFRVWEEHFGLSPINLSYLKSNDSSQADPWQSYVLTKYRDLQMYNCWHEDRIAAANHIENRVPFLDHRLVEWVCGIPDGLRKDLLWDKSVLRKSLTNELHTSYTHRPKVPFFYGKDVRYTHKMMFHLLKKNNYQLIEEAFSHSDASSIIQVEHIHAIM	not soluble
MKTKTARLFALTALTAATTMPLAAQVSAQEASPREATISVSGEGQAAIAPDMAILSFSVVKQAETAAAALTENSKALAEVLKALKEAAIEDRDLQTSNFSVQPLYKHYEPKDGVYVAPEITGYQVSNGLTVRVRDLKMLGTILDTSVKLGINQGGDITFTNDKPEATVTEARKQAVADAIAKAKTLTEAAGVKLGRVIQISENSQRPMPVPAGMMRASMMKEADSVPIASGENNYSVVVNVTFALDQ	not soluble
MEYKLHNGSGGLCCKGCSRQDKKLNTYDWLADIPGNAEECDMVEVQFKNTRKGYYRNSNKIKLEKGDIVAVEAAPGHDIGVVTLTGRLVPLQMKKANFKTDVEIKRIYRKAKPVDMEKFNEAKAKEHATMIRARQIALNLNLDMKIGDVEYQGDGNKAIFYYIADERVDFRQLIKVLAEAFRVRIEMKQIGARQEAGRIGGIGPCGRELCCATWMTSFVSVSTSAARFQDISLNPQKLAGQCAKLKCCLNYEVDCYVEAQKRLPSKEIELETKDGTFYFFKADILSNHVSYSTDKNFPANLVTISGKRAFEVIAMNKKGMKPDSLLEAEVKQESKKPIDLLEQESLTRFDRNRNNKDGNNGNRNKKKRKGNNDNRPQAQAESGNRPQQPQRGENENRPQPSENGNRGERGDRENRPRNNNNNNRNRGQNQGRNNENRRPERGQNQERPQNPNRPQNQERSQNQERPVNQERNQERNQERPQNRERQPKQERPQNQERPQEQGRQPNQERIPRPERNSNQEKPQNNEKPAQELEHHHHHH	soluble
MGSDKIHHHHHHMNNINDSSAIHITPETFVKQIRSLGRYNFPEPALVDPDGIGIVGIGGNLAPETLISAYAQGLFPWFNDDEPIAWWCPEPRCVMQPTDYQPSKSLRKQANNARWQLTLNQAFNEVIHACSLPRSNGLPEGEHTWIHDDMIEAYNELHAQGFAHSVEVWDDQGQLVGGLYGLKIGSIYFGESMFHIASNASKLAFWGLMRLCTQSNVTLVDCQLPNEHLMSLGAITLSRTEFLTQLDTLISNGSDAWHKNSHRPLAVSLLGNLQPWQLNP	not soluble
MGSDKIHHHHHHMKIGVVGPGAIGLLYTFYLQKSNQDVTLFTRTAKQADELNITGVTCIREGKRETVFPPVLPIESMLDQQLDYIFIAVKQYHITDILPFVRGKSSVVFLQNGMSHLHAMQKIENENIAVGIVEHGAKKEERHTVYHTGIGVTKFGIVRGRSIHFEKIFNCFPFPHFPIRIEDDWKGVMHKKLVVNVCINPLTALLQVKNGELITNPFFNQMMEQVFQEVVFLVKEEKEMVWEMVRHVCERTSHNTSSMLADVRANRQTEIGAIVGYVLEEAKKQQRSVPTLQFLFDAIKGLEVKV	not soluble
MSLSVVERIFNHSESRPDCIAVYENDRTISYENLASDIKKTAAKLVSLGVTSEDAVLVRSNNSYSFILLYFSIHYVGAKFVNVAPDSDVSYVSFIEDKVNPKLFIEKSQDFIRNIDSYTFDNIFPPQARGIADIMFTSGTTGEPKGVLLSHKSLVLATEHIISHVKNTNEDVELLLMPLSHSFAMARMRTSLFAGGAIVVGCSFKQLKSVFKAIEFYKVTGLGLVPSAWSYITLMTKDLIRKYSEQLNFIEFGSAHFPFEDKKQVAEWFPNTNVVMHYGLTEVSRATFIDFHNDDINAVGHRYRGADFKIIDNKGAEVIEGEEGEIVFKAPWMLDGYFENSQLTSDCFVEGYFKTGDLGRVVGDYLFLTGRLKEIINVGGKKVSPDQVEKVLSEALGVQECACAALSDANMGEVVQAYIVVKSGWDCENVISNIKETINGQLPMHMRPKKYSIVSALPKTVSGKVQRYKLSSEGHHHHHH	soluble
MGSDKIHHHHHHMSSLATLAQPLADGTFQCLACQWRCTLAPGEIGRCHMRIGREEGIELINHGMISGAAIGPVEDHRLWHFFPDTTVLAIGGWGYALPIDQQRGPYGTLPTEPAKQRRLEPQRAADFALERLCRGVVWAFGEPAVNFEYVLALLQLSRAASRYTAIVTSGMLSLEALNELGPYLNGISLDLRGFSDNAYQRLGGISDWRHILRFAEEAQQRWKCHIEITTRIHHGVNDHPDELRDLVEWIKKTLGEETPWHVLPGDAGSETAAATKQARRIGHEGGLQFIYGHEPNQPTRCPSCHATLINRQHGVSRRVGLDGNRCSNCGYATNLYLSIFKVHRT	not soluble
MGSDKIHHHHHHMMFESHSQIISAAEELLTKRYGGSQSLTDWDRLAGSGAAVVLRARVASSPFFPNRSVVVKYIPPTGRLIDESTLMREVVSYQFTTSLNADVRPGPVLLAYDVEQHLLVISDSGDGDTFAELLERHENDVRIGILRNLGEAIGKLHVGTAAKEQDFNILLHRMLVKHPEVQPMHGFRERLLRLNIGVGITLVEQAGITVPDVVKSFAQEAMRRLVTGQHRAFTPFDLSPDNIIVADRTEFLDYEWAGFRDAAFDVASVIAGFPQYLFARPVSDAEADIFIESWVQQVGDMWPNVRNTPRLHARILTALIGWAFSSVTMMYLGSSSEAYEELFHKIGTEKATAFDVEEIVKEIAATGDILLGTFVPETSEDADLVALLRQDLYETFEALNRFAQRESDTRFPVVADFAQAVVDLLTDDESTE	not soluble
